B1: human creatine kinase B subunit (wild-type) (enzyme)
chain: not shown
notes: One subunit (monomer) that associates into dimers; Tested in crude detergent extracts of transfected COS cells; also called B creatine kinase; B CK
B2: human creatine kinase M subunit (wild-type) (enzyme)
chain: not shown
notes: One subunit (monomer) that associates into dimers; Tested in crude detergent extracts of transfected COS cells; also called M creatine kinase; M CK

Tests used:
[1] = molecular target: B2; assay: nondenaturing electrophoresis of extracts of COS cells cotransfected with all three constructs
[2] = molecular target: the molecule itself; assay: nondenaturing electrophoresis of extracts of COS cells cotransfected with M, B and lys⁻M constructs
[3] = molecular target: the molecule itself; assay: nondenaturing electrophoresis of extracts of COS cells cotransfected with M, mutant M and B constructs (dimer formation)

binding result [1] | Binder | binding result [2] | binding result [3]
binds | B1 | binds | –
– | B2 | – | binds
